# Measured values as given in patent US20090111753A1, “Nogo-A Polypeptide Fragments, Variant Nogo Receptor-1 Polypeptides, and Uses Thereof” (Yale University, priority 2004, published 2009).
# Numbering of substitutions follows the chain as printed.
# T1: AP-Nogo66 (Homo sapiens, UniProt Q9NQC3)
# T1 construct: made in house; NgR mutants: COS-7
# T1 sequence (Q9NQC3 1055-1120 limits assumed): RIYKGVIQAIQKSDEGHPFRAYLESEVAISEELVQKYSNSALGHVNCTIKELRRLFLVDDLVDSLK
# T2: AP-B4C (Homo sapiens, UniProt Q9NQC3)
# T2 construct: a.a; 950-1018 (AmNg B4C); made in house; host or cells: AP ligand: HEK293T conditioned medium; NgR mutants: COS-7
# T2 sequence (Q9NQC3 950-1018): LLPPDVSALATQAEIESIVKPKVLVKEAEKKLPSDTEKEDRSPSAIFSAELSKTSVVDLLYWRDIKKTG
# T3: AP-Lingo-1 (Homo sapiens, UniProt Q96FE5)
# T3 construct: made in house; NgR mutants: COS-7
# T3 sequence (Q96FE5 40-538 limits assumed): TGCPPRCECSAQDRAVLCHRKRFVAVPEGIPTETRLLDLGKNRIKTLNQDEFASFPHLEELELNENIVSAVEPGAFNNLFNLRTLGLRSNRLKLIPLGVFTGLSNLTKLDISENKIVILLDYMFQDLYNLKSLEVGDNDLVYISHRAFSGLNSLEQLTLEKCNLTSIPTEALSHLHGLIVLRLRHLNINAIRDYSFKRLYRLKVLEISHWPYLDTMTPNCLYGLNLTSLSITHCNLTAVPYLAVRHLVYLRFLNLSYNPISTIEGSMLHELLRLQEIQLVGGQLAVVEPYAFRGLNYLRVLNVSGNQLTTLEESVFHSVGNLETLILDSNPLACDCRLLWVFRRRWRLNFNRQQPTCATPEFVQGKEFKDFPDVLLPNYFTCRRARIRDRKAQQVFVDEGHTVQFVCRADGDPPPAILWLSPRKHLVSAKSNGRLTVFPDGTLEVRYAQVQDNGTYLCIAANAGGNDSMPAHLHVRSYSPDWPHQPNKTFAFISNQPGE
# B1: WT: wild type human NgR1 expressed in COS-7 cells (protein, UniProt Q9BZR6 27-447, looked up)
# Reticulon-4 receptor: CPGACVCYNEPKVTTSCPQQGLQAVPVGIPAASQRIFLHGNRISHVPAASFRACRNLTILWLHSNVLARIDAAAFTGLALLEQLDLSDNAQLRSVDPATFHGLGRLHTLHLDRCGLQELGPGLFRGLAALQYLYLQDNALQALPDDTFRDLGNLTHLFLHGNRISSVPERAFRGLHSLDRLLLHQNRVAHVHPHAFRDLGRLMTLYLFANNLSALPTEALAPLRALQYLRLNDNPWVCDCRARPLWAWLQKFRGSSSEVPCSLPQRLAGRDLKRLAANDLQGCAVATGPYHPIWTGRATDEEPLGLPKCCQPDAADKASVLEPGRPASAGNALKGRVPPGDSPPGNGSGPRHINDSPFGTLPGSAEPPLTAVRPEGSEPPGFPTSGPRRRPGCSRKNRTRSHCRLGQAGSGGGGTGDSEGS
# B2: 114, 117, 139: human NgR1 mutant, listed residues mutated to alanine (protein)
# chain: CPGACVCYNEPKVTTSCPQQGLQAVPVGIPAASQRIFLHGNRISHVPAASFRACRNLTILWLHSNVLARIDAAAFTGLALLEQLDLSANAALRSVDPATFHGLGRLHTLHLDACGLQELGPGLFRGLAALQYLYLQDNALQALPDDTFRDLGNLTHLFLHGNRISSVPERAFRGLHSLDRLLLHQNRVAHVHPHAFRDLGRLMTLYLFANNLSALPTEALAPLRALQYLRLNDNPWVCDCRARPLWAWLQKFRGSSSEVPCSLPQRLAGRDLKRLAANDLQGCAVATGPYHPIWTGRATDEEPLGLPKCCQPDAADKASVLEPGRPASAGNALKGRVPPGDSPPGNGSGPRHINDSPFGTLPGSAEPPLTAVRPEGSEPPGFPTSGPRRRPGCSRKNRTRSHCRLGQAGSGGGGTGDSEGSGALPSLTCSLTPLGLALVLWTVLGPC
# B3: 78, 81: human NgR1 mutant, listed residues mutated to alanine (protein)
# chain: B2 chain with R52A, R55A, A88D, A91Q, A113R
# B4: 36, 38, 61: human NgR1 mutant, listed residues mutated to alanine (protein)
# chain: B2 chain with E10A, K12A, R35A, A88D, A91Q, A113R
# B5: 95, 97, 122: human NgR1 mutant, listed residues mutated to alanine (protein)
# chain: B2 chain with R69A, D71A, A88D, A91Q, D96A, A113R
# B6: 256, 259: human NgR1 mutant, listed residues mutated to alanine (protein)
# chain: B2 chain with A88D, A91Q, A113R, R230A, D233A
# B7: 292, 296, 297, 300: human NgR1 mutant, listed residues mutated to alanine (protein)
# chain: B2 chain with A88D, A91Q, A113R, R266A, R270A, D271A, R274A
# B8: 171, 172, 175, 176, 196, 199: human NgR1 mutant, listed residues mutated to alanine (protein)
# chain: B2 chain with A88D, A91Q, A113R, D145A, D146A, R149A, D150A, R170A, R173A
# Target: T1, AP-Nogo66
# Assay: Binding of AP-Nogo66 to COS-7 cells expressing NgR mutants
# Design: key: ++: WT level; +: weaker than wild type; trace binding; −: no binding
# Settings: AP-Ng66 5 nM; level of binding compared to wild type NgR
# Experimental: (§1) FIG. 4A. […] Binding of AP or AP fused NgR ligands to COS-7 cells expressing different NgR mutants as indicated. The concentrations of ligands applied were: AP, 30 nM; AP-Ng66, 5 nM; AP-Ng33, 10 nM; AP-B4C, 10 nM; AP-B4C66, 0.5 nM; AP-Lingo-1, 10 nM; AP-OMGP, 10 nM; AP-MAG, 30 nM. These concentrations are close to the binding Kd of these proteins to NgR so that any […] is reflected linearly in staining.
# (§2) FIG. 4B. AP binding of NgR ligands to NgR mutants expressed as percentage of wild type NgR. AP after incubation with AP fused ligands, AP bound to COS-7 cells expressing NgR or NgR mutants were stained and measured.
# (§3) To better define how multiple ligands bind to the NgR protein, we examined a series of Ala-substituted NgR for ligand binding activity. NgR mutagenesis was done using the Quick Change Multisite Directed Mutagenesis Kit (Stratagene catalog #200514). Human NgR1 was used as a template. Ala substitutions were generated for each of the charged residues predicted to be solvent accessible at the surface of the ligand binding domain of NgR (Barton, W. A., et al., Embo J. 22:3291-3302 (2003); He, X. L., et al., Neuron 38:177-185 (2003)). We generated mutants in which 1-8 surface residues localized within 5 A of one another were Ala-substituted. Because of the coiling nature of the LRR structure, as residues juxtaposed on the protein surface are commonly separated by approximately 25 residues in the primary structure. In addition to mutations in specific charged surface patches, other mutations were targeted to glycosylation sites and to regions predicted to be involved in ligand binding based on the NgR structure (Barton, W. A., et al., Embo J. 22:3291-3302 (2003); He, X. L., et al., Neuron 38:177-185 (2003)). In addition, a variant corresponding to a human polymorphism was examined (D259N). None of the mutations altered the Leu residues that define the LRR structure itself or the Cys residues critical in the amino and carboxyl terminal capping domains. The vast majority of such Ala surface substitution mutants were expressed as immunoreactive polypeptides with a molecular weight and an expression level indistinguishable from wild type NgR (FIG. 4C and data not shown).
# (§4) This collection of 74 individual NgR mutants was interrogated for AP-Nogo-66, AP-Amino-Nogo-B4C, AP-MAG, AP-OMgp, and AP-Lingo-1 binding. AP-Nogo66, AP-MAG, AP-OMGP and AP-Lingo-1 constructs are described elsewhere (Fournier, A. E., et al., Nature 409:341-346 (2001); Liu, B. P., et al., Science 297:1190-1193 (2002); Mi, S., et al., Nat. Neurosci. 7:221-228 (2004); Wang, K. C., et al., Nature 417:941-944 (2002b)). The properties of the NgR mutants fell into one of three major categories (Table II and FIG. 5). A number of Ala substituted NgR polypeptides bound all of the ligands at wild type levels. […] In addition, a significant extent of the concave surface is dispensable for ligand binding.
# (§5) Binding of Alanine substituted NgR mutants to NgR ligands were compared to wild type NgR and the levels of binding were categorized as ++ (WT level), + (weaker than wild type), tr (trace binding), − (no binding), N/A (not determined). NgR mutant proteins were also subjected to SDS-PAGE and probed by anti-NgR antibodies. Mutants with expression level similar to WT NgR were labeled as “y”.
row,Ng66,Molecule
1,++,B1
2,+,B2
3,++,B3
4,+,B4
5,+,B5
6,++,B6

# Test system: AP-MAG
# Assay: Binding of AP-MAG to COS-7 cells expressing NgR mutants
# Design: key: ++: WT level; +: weaker than wild type; trace binding; −: no binding
# Settings: AP-MAG 30 nM; level of binding compared to wild type NgR
# Experimental: as §1, §2, §3, §4, §5
row,Molecule,MAG
1,B1,++
2,B2,−
3,B4,tr
4,B5,tr
5,B6,−

# Test system: AP-B4C66
# Assay: Binding of AP-B4C66 to COS-7 cells expressing NgR mutants
# Design: key: ++: WT level; +: weaker than wild type; trace binding; −: no binding
# Settings: AP-B4C66 0.5 nM; level of binding compared to wild type NgR
# Experimental: as §1, §2, §3, §4, §5
row,Molecule,B4C-66
1,B1,++
2,B2,+
3,B3,++
4,B4,++
5,B5,+
6,B6,++

# Target: T2, AP-B4C
# Assay: Binding of AP-B4C to COS-7 cells expressing NgR mutants
# Design: key: ++: WT level; +: weaker than wild type; trace binding; −: no binding
# Settings: AP-B4C 10 nM; level of binding compared to wild type NgR
# Experimental: as §1, §2, §3, §4, §5
row,B4C,Molecule
1,++,B1
2,+,B2
3,++,B3
4,++,B4
5,+,B5
6,++,B6

# Test system: AP-OMgp
# Assay: Binding of AP-OMgp to COS-7 cells expressing NgR mutants
# Design: key: ++: WT level; +: weaker than wild type; trace binding; −: no binding
# Settings: AP-OMGP 10 nM; level of binding compared to wild type NgR
# Experimental: as §1, §2, §3, §4, §5
row,Molecule,OMgp
1,B1,++
2,B2,−
3,B3,++
4,B4,+
5,B5,tr
6,B6,+

# Target: T3, AP-Lingo-1
# Assay: Binding of AP-Lingo-1 to COS-7 cells expressing NgR mutants
# Design: key: ++: WT level; +: weaker than wild type; trace binding; −: no binding
# Settings: AP-Lingo-1 10 nM; level of binding compared to wild type NgR
# Experimental: as §1, §2, §3, §4, §5
row,Lingo-1,Molecule
1,++,B1
2,−,B2
3,tr,B3
4,tr,B4
5,−,B5
6,++,B6

# Test system: NgR ligands
# Assay: Binding of alanine substituted NgR mutants to NgR ligands, summary categories
# Settings: AP-Nogo66, AP-B4C, AP-B4C66, AP-Lingo-1, AP-OMgp and AP-MAG; compared to wild type NgR
# In short: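 Human NgR1 template; 74 mutants with 1-8 solvent-exposed charged surface residues (within 5 Å) Ala-substituted, plus glycosylation-site mutants and D259N polymorphism. Mutants tested for binding of AP-tagged Nogo66, Amino-Nogo-B4C, B4C66, MAG, OMgp and Lingo-1; each classed as losing all, keeping all, or selective ligand binding.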
row,ligand binding category of NgR mutant (Table II),Molecule
1,Binding to all ligands,B7
2,Differential binding,B2
3,Differential binding,B3
4,Differential binding,B4
5,Differential binding,B5
6,Binding to all ligands,B8
7,Differential binding,B6
